In patent US20080267950A1 (BOARD OF TRUSTEES OF THE UNIVERSITY OF ARKANSAS, published 2008):

Experiments:
[1] = target: T1, LRP6 in C2C12 cell lysate (mouse, UniProt O88572 20-1613); assay: co-immunoprecipitation: BMPR immunoprecipitated from C2C12 lysate, blotted with anti-LRP6
T1 construct: also called LDL receptor-related protein 6

[2] = target: T2, LRP5 in C2C12 cell lysate (mouse, UniProt Q91VN0 31-1614); assay: co-immunoprecipitation: BMPR immunoprecipitated from C2C12 lysate, blotted with anti-LRP5
T2 construct: also called LDL receptor-related protein 5
T2 sequence (Q91VN0 31-1614 limits assumed): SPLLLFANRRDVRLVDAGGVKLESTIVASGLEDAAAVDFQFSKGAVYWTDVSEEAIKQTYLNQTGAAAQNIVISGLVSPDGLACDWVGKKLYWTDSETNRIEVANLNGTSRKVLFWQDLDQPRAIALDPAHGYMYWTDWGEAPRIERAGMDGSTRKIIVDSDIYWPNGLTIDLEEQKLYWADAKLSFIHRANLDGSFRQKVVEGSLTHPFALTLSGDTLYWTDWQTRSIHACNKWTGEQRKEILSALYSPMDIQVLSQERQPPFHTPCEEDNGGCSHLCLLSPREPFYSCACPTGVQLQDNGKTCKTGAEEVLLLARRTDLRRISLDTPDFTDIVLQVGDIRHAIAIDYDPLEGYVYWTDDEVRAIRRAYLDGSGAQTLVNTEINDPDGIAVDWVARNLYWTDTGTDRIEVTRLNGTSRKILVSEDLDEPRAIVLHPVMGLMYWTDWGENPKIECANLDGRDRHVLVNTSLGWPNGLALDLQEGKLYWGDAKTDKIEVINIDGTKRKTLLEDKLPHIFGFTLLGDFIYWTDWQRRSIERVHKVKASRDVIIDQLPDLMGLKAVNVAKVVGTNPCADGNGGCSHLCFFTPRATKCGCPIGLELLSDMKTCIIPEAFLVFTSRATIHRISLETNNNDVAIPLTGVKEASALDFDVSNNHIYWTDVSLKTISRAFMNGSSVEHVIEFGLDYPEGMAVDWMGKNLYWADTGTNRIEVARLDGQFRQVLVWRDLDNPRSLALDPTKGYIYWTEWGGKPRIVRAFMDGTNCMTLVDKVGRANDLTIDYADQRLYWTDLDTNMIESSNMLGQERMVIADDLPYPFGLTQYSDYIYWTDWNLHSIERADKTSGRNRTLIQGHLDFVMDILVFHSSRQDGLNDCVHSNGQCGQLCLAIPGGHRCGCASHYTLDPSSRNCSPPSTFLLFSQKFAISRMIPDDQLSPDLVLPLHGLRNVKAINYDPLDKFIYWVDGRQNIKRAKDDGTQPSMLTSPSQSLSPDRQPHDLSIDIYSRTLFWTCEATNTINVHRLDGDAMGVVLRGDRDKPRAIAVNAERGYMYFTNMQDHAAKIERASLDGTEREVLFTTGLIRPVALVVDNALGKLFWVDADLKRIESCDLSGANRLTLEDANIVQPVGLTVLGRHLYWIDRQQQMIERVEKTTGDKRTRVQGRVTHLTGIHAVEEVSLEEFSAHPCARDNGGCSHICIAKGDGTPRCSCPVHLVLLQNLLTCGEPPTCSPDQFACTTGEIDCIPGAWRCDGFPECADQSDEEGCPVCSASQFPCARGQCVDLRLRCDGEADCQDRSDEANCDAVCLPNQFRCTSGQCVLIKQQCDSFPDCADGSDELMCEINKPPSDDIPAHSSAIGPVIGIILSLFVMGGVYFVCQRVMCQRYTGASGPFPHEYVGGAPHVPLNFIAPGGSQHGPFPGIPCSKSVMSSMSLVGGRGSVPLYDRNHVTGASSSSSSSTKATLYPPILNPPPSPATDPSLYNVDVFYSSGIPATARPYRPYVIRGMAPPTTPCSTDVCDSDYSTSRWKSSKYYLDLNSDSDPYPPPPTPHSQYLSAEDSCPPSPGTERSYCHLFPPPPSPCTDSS

T1 sequence (O88572 20-1613 limits assumed): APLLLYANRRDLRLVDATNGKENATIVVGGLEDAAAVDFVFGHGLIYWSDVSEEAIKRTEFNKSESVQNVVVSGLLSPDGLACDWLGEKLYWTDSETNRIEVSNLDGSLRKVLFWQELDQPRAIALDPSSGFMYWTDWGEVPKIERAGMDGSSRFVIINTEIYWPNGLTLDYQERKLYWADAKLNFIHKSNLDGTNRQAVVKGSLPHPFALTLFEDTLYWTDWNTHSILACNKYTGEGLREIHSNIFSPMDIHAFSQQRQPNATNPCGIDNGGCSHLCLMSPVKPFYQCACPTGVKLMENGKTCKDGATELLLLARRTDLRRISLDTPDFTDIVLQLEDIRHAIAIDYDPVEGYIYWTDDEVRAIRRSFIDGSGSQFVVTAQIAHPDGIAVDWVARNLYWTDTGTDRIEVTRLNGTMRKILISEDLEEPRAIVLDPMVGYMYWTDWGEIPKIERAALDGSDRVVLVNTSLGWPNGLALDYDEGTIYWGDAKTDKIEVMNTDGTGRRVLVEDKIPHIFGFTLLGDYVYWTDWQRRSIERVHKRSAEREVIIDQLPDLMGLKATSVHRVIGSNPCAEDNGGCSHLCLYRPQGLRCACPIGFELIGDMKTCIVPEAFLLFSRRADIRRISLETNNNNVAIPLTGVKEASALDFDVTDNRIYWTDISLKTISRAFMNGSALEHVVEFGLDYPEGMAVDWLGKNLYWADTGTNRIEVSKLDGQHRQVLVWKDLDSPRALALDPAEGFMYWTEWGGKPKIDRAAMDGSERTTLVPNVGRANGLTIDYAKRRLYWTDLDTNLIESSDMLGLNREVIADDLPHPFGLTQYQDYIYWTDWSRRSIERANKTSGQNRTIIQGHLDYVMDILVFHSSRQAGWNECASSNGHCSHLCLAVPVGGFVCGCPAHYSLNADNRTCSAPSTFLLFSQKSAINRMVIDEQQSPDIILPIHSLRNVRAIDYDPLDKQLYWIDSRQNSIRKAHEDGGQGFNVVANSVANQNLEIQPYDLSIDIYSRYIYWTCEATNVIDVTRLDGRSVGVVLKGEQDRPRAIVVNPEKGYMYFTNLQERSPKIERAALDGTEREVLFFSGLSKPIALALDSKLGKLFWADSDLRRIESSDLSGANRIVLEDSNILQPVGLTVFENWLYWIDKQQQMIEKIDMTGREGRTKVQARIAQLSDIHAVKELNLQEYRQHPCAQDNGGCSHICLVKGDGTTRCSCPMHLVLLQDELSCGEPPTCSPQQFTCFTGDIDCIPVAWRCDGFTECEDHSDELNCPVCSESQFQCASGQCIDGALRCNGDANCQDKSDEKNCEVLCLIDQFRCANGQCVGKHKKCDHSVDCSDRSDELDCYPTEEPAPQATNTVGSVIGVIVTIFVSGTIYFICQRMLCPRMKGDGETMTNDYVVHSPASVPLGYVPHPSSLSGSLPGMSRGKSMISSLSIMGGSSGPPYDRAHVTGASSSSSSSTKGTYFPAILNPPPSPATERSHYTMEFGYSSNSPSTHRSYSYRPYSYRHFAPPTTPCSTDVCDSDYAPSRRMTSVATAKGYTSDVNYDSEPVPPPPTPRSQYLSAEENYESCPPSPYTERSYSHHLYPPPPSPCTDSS

binding result [1]: no binding | binding result [2]: no binding
B1: BMPR-II in C2C12 cell lysate (receptor, mouse, UniProt O35607 27-1038, looked up)
chain: SQNQERLCAFKDPYQQDLGIGESRISHENGTILCSKGSTCYGLWEKSKGDINLVKQGCWSHIGDPQECHYEECVVTTTPPSIQNGTYRFCCCSTDLCNVNFTENFPPPDTTPLSPPHSFNRDETIIIALASVSVLAVLIVALCFGYRMLTGDRKQGLHSMNMMEAAAAEPSLDLDNLKLLELIGRGRYGAVYKGSLDERPVAVKVFSFANRQNFINEKNIYRVPLMEHDNIARFIVGDERLTADGRMEYLLVMEYYPNGSLCKYLSLHTSDWVSSCRLAHSVTRGLAYLHTELPRGDHYKPAISHRDLNSRNVLVKNDGACVISDFGLSMRLTGNRLVRPGEEDNAAISEVGTIRYMAPEVLEGAVNLRDCESALKQVDMYALGLIYWEVFMRCTDLFPGESVPDYQMAFQTEVGNHPTFEDMQVLVSREKQRPKFPEAWKENSLAVRSLKETIEDCWDQDAEARLTAQCAEERMAELMMIWERNKSVSPTVNPMSTAMQNERNLSHNRRVPKIGPYPDYSSSSYIEDSIHHTDSIVKNISSEHSMSSTPLTIGEKNRNSINYERQQAQARIPSPETSVTSLSTNTTTTNTTGLTPSTGMTTISEMPYPDETHLHATNVAQSIGPTPVCLQLTEEDLETNKLDPKEVDKNLKESSDENLMEHSLKQFSGPDPLSSTSSSLLYPLIKLAVEVTGQQDFTQAANGQACLIPDVPPAQIYPLPKQQNLPKRPTSLPLNTKNSTKEPRLKFGNKHKSNLKQVETGVAKMNTINAAEPHVVTVTMNGVAGRSHNVNSHAATTQYANGAVPAGQAANIVAHRSQEMLQNQFIGEDTRLNINSSPDEHEPLLRREQQAGHDEGVLDRLVDRRERPLEGGRTNSNNNNSNPCSEQDILTQGVTSTAADPGPSKPRRAQRPNSLDLSATNILDGSSIQIGESTQDGKSGSGEKIKRRVKTPYSLKRWRPSTWVISTEPLDCEVNNNGSDRAVHSKSSTAVYLAEGGTATTTVSKDIGMNCL
notes: also called BMP-2 receptor
